The target in experiment [1] is human TNFR1 (R&D systems, cat no. 636-R1/CF) (human) (UniProt P19438). As to the kind of experiment: BIAcore sequential injection on biotinylated human TNFR1; competitor DOM1h-574-16. On the technique in general: In SPR one partner is held on a chip, and binding of the other changes the refractive index at the surface.
Experiment [2] addresses T1, human TNFR1 on MRC-5 cells (human, UniProt P19438 30-455).
T1 sequence (looked up): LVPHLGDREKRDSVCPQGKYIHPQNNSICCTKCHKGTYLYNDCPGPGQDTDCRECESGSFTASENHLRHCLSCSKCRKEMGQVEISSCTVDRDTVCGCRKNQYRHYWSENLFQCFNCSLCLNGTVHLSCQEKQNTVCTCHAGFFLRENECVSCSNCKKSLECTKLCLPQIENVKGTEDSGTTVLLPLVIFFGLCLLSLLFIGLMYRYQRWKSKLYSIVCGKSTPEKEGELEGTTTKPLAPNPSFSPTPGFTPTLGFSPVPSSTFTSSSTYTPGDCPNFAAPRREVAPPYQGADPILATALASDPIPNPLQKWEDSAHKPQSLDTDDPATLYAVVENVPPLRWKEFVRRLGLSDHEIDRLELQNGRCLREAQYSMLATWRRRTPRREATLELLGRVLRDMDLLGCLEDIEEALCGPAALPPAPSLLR
As to the kind of experiment: cell-based or functional assay.

Experiment [3] addresses mouse TNFR1 on L929 cells (mouse) (UniProt P25118). As to the kind of experiment: cell-based or functional assay.
Experiment [4] addresses T2, human TNFR1 (R&D systems, cat no. 636-R1/CF) (human, UniProt P19438 30-211, limits assumed, biotinylated with EZ-Link NHS-LC-LC-biotin where coated on streptavidin chips; amine-coupled in the Table 2 experiment).
T2 construct: bought soluble recombinant protein; also called hTNFR1; p55
T2 sequence (looked up): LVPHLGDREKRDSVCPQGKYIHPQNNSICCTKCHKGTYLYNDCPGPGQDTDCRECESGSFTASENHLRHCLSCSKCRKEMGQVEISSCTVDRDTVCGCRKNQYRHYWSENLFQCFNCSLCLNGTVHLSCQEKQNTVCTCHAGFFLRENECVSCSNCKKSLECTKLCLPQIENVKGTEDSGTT
As to the kind of experiment: BIAcore screening of supernatants.

Experiment [5] concerns the target T1, human TNFR1 on MRC-5 cells. As to the kind of experiment: cell-based or functional assay. This is another data set of the same source.
The target in experiment [6] is T1, human TNFR1 on MRC-5 cells. As to the kind of experiment: cell-based or functional assay. The source holds these as a separate data set.

Sequence of mouse TNFR1 on L929 cells (mouse) (P25118 30-454): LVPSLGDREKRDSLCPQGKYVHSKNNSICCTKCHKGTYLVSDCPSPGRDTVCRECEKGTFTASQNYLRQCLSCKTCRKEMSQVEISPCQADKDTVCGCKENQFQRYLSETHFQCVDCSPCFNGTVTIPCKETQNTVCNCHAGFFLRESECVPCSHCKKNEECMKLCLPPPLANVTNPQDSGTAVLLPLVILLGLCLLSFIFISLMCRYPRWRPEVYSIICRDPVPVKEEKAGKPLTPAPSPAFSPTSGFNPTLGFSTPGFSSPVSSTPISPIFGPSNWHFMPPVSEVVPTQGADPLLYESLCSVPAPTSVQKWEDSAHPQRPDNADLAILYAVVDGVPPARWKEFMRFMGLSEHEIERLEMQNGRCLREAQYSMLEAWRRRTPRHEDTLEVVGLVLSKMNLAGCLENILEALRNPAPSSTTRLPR

Take “mAb Clone 4.12 (Invitrogen, cat. no. Zymed 33-0100) (antibody)”: the percent less binding after DOM1h-574-16 in experiment [1] was 20%.

B1: DMS0132 (bispecific antibody)
chain: EVQLLESGGGLVQPGGSLRLSCAASGFTFVKYSMGWVRQAPGKGLEWVSQISDTADRTYYAHSVKGRFTISRDNSKNTLYLQMNSLRAEDTAVYYCAIYTGRWVPFEYWGQGTLVTVSSASTDIQMTQSPSSLSASVGDRVTITCRASRPIGTTLSWYQQKPGKAPKLLILWNSRLQSGVPSRFSGSGSGTDFTLTISSLQPEDFATYYCAQAGTHPTTFGQGTKVEIKR
In experiment [2], B1 registered an MRC5 ND50 of 1.04 nM. Moreover, the L929 ND50 in experiment [3] was determined as 6.8 nM.

B2: DMS0133 (bispecific antibody)
chain: EVQLLESGGGLVQPGGSLRLSCAASGFTFFKYSMGWVRQAPGKGLEWVSQISDTADRTYYAHSVKGRFTISRDNSKNTLYLQMNSLRAEDTAVYYCAIYTGRWAPFEYWGQGTLVTVSSASTDIQMTQSPSSLSASVGDRVTITCRASRPIGTTLSWYQQKPGKAPKLLILWNSRLQSGVPSRFSGSGSGTDFTLTISSLQPEDFATYYCAQAGTHPTTFGQGTKVEIKR
In turn, B2 had an MRC5 ND50 in experiment [2] of 0.99 nM. This molecule gave an L929 ND50 in experiment [3] of 4.2 nM.

B3: DMS0134 (bispecific antibody)
chain: EVQLLESGGGLVQPGGSLRLSCAASGFTFFKYSMGWVRQAPGKGLEWVSQISDTADRTYYAHSVKGRFTISRDNSKNTLYLQMNSLRAEDTAVYYCAIYTGRWVPFEYWGQGTLVTVSSASTDIQMTQSPSSLSASVGDRVTITCRASRPIGTTLSWYQQKPGKAPKLLILWNSRLQSGVPSRFSGSGSGTDFTLTISSLQPEDFATYYCAQAGTHPTTFGQGTKVEIKR
Turning to B3, the MRC5 ND50 in experiment [2] was determined as 0.96 nM. Also, the L929 ND50 in experiment [3] is 6.52 nM.

B4: DMS0135 (bispecific antibody)
chain: EVQLLESGGGLVQPGGSLRLSCAASGFTFFKYSMGWVRQAPGKGLEWVSQISDTADRTYYSHSVKGRFTISRDNSKNTLYLQMNSLRAEDTAVYYCAIYTGRWVPFEYWGQGTLVTVSSASTDIQMTQSPSSLSASVGDRVTITCRASRPIGTTLSWYQQKPGKAPKLLILWNSRLQSGVPSRFSGSGSGTDFTLTISSLQPEDFATYYCAQAGTHPTTFGQGTKVEIKR
Molecule B4 came in with an MRC5 ND50 in experiment [2] of 1.17 nM. In experiment [3], this molecule displayed an L929 ND50 of 5.9 nM.

B5: DOM1h-574-7 (other)
VH: EVQLLESGGGLVQPGGSLRLSCAASGFTFVKYSMGWVRQAPGKGLEWVSQISNTGGHTYYADSVKGRFTISRDNSKNTLYLQMNSLRAEDTAVYYCAIYTGRWEPFDYWGQGTLVTVSS
notes: anti-TNFR1 dAb (VH) from error-prone test maturation; expressed from pDOM5 (myc tag not included here)
As for B5, the binding result in experiment [4] is “binds”.

B6: DMS0114 (bispecific antibody, V domains shown)
VH: EVQLLESGGGLVQPGGSLRLSCAASGFTFVKYSMGWVRQAPGKGLEWVSQISNTADRTYYAHSVKGRFTISRDNSKNTLYLQMNSLRAEDTAVYYCAIYTGRWRPFEYWGQGTLVTVSS
In the case of B6, the “MRC5 (ND50 in nM)” value in experiment [5] was 3.7 nM.

B7: DMS0122 (bispecific antibody, V domains shown)
VH: EVQLLESGGGLVQPGGSLRLSCAASGFTFVKYSMGWVRQAPGKGLEWVSQISDTGDRRYYDDSVKGRFTISRDNSKNTLYLQMNSLRAEDTAVYYCAIYTGRWAPFEYWGQGTLVTVSS
Consider B7, for which, in experiment [5], the “MRC5 (ND50 in nM)” value amounted to 1.5 nM.

B8: DMS0117 (bispecific antibody, V domains shown)
VH: EVQLLESGGGLVQPGGSLRLSCAASGFTFVKYSMGWVRQAPGKGLEWVSQISDTGDRRYYDDSVKGRFTISRDNSKNTLYLQMNSLRAEDTAVYYCAIYTGRWKPFEYWGQGTLVTVSS
As to B8, the “MRC5 (ND50 in nM)” value in experiment [5] is 25.9 nM.

B9: DOM1h-574-19 (other)
VH: EVQLLESGGGLVQPGGSLRLSCAASGFTFGKYSMGWVRQAPGKDLEWVSQISNTGDHTYYADSVKGRFTISRDNSKNTLYLQMNSLRAEDTAVYYCAIYTGRWEPFDYWGQGTLVTVSS
Regarding B9, the “MRC-5 EC50” value in experiment [6] came to 140 nM.

B10: DOM1h-574-18 (other)
VH: EVQLLESGGGLVQPGGSLRLSCAASGFTFGKYSMGWVRQAPGKDLEWVSQISNTGDRTYYADSVKGRFTISRDNSKNTLYLQMNSLRAEDTAVYYCAIYTGRWEPFDYWGQGTLVTVSS
Regarding B10, in experiment [6], the “MRC-5 EC50” value came out at 17 nM.

B11: DOM1h-574-10 (other)
VH: EVQLLESGGGLVQPGGSLRLSCAASGFTFGKYSMGWVRQAPGKDLEWVSQISNTGGHTYYADSVKGRFTISRDNSKNTLYLQMNSLRAEDTAVYYCAIYTGRWEPFDYWGQGTLVTVSS
notes: as for B5
For B11, in experiment [4], the binding result is “binds”.

For the origin of these results see US20110301335A1 (published 2011).
